Laboratory results as given in patent publication US20150284762, “METHOD FOR PRODUCING PROTEIN-NUCLEIC ACID CONJUGATE, AND METHOD FOR DETECTING TARGET SUBSTANCE” (KYUSHU UNIVERSITY, NATIONAL UNIVERSITY CORPORATION, published 2015).

B1: FITC-thrombin DNA aptamer with T15 linker (30 mer) (ssDNA)
DNA: GGTTGGTGTGGTTGGTTTTTTTTTTTTTTT
B2: (BAP)-(PEG)3-aptamer, single label (ssDNA)
DNA: GGTTGGTGTGGTTGGTTTTTTTTTTTTTTT
modifications: 3' single Z-QG-(PEG)3-ddUTP crosslinked to NK14-BAP
B3: (BAP)-aptamer, single label (ssDNA)
DNA: GGTTGGTGTGGTTGGTTTTTTTTTTTTTTT
modifications: 3' single Z-QG-ddUTP crosslinked to NK14-BAP

The binders below were run against thrombin (UniProt P00734;P00734 P00734:328-363,P00734:364-622) (assay: ELONA).

Binding result, binds:
B1
B2
B3
